Where no end group is shown, it is not given here. [ ]: non-standard residue; d: D form. pY = N[C@@H](Cc1ccc(OP(=O)(O)O)cc1)C(=O)O
What was measured:
GST protein alone = biological target: T1, GST protein alone (UniProt P08515 1-218 = GST); experiment: SPR (Biacore 3000), peptide-coupled chip
T1 construct: Control analyte in SPR; also called glutathione S-transferase
Method: The top photograph was incubated with a biotinylated GST-Abl-SH3 domain (GST-Abl-SH3-B). No binding to biotinylated GST (GST-B) was observed (middle panel). […] Panels B-D show binding to the c-Abl SH2 domain. […] No binding to the GST protein alone was observed (not shown). RU, response unit.
Surface Plasmon Resonance Assay. Surface plasmon resonance assay was performed using a Biacore 3000 instrument (BlAcore Inc., Piscataway, N.J.). Biotinylated 14-residue peptides, pY213 or Y213, were coupled to surface of streptavidin-coated (SA) biosensor chip (BIAcore Inc., Piscataway, N.J.). Binding reactions were done in HBS-EP buffer, containing 10 mM HEPES, pH 7.4, 150 mM NaCl, 3 mM EDTA, and 0.05% (v/v) surfactant P20. The surface was regenerated before each new injection using 50 mM NaOH and 1M NaCl. The Biacore instrument was programmed to perform a series of binding assays with increasing concentrations of GST Abl SH2 polypeptide over the same regenerated surface. Sensograms (plots of changes in response unit on the surface as a function of time) derived were analyzed using the software BIAeval 3.0.

biotinylated GST = biological target: T2, biotinylated GST (UniProt P08515 1-218 = GST, biotinylated (sites not given)); experiment: blot overlay with biotinylated GST
T2 construct: also called GST-B
Method: FIG. 2 is graphs and photographs of western blots showing the identification of the minimal binding region of c-Abl SH3 and SH2 domains in the N-terminus of Abi1. […] Recombinant GST fusion polypeptides containing the N-terminal terminal region of Abi1/Hsshb3p1 were separated on SDS polyacrylamide gels and transferred onto a nitrocellulose membrane. […] The top photograph was incubated with a biotinylated GST-Abl-SH3 domain (GST-Abl-SH3-B). No binding to biotinylated GST (GST-B) was observed (middle panel). […] Panels B-D show binding to the c-Abl SH2 domain. […] No binding to the GST protein alone was observed (not shown). RU, response unit.

T2 sequence (P08515 whole entry): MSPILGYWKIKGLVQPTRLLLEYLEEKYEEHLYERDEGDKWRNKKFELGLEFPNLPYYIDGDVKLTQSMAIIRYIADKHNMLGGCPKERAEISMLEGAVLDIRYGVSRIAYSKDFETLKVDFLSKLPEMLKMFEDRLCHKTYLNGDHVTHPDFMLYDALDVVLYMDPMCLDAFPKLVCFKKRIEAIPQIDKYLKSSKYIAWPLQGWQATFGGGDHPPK
T1 sequence (P08515 whole entry): as above

B1: pY213 peptide (14-residue Abi1 peptide containing phosphorylated tyrosine 213) (peptide)
peptide: VKPPTVPND[pY]MTSP
modifications: also: biotinylated (site not given here)
notes: Biotinylated and coupled to a streptavidin chip in SPR; also called phosphopeptide pY213
binding result (GST protein alone): no binding

B2: GST fusion polypeptide of Abi1 N1-187 (other)
chain: MAELQMLLEEEIPSGKRALIESYQNLTRVADYCENNYIQATDKRKALEETKAYTTQSLASVAYQINALANNVLQLLDIQASQLRRMESSINHISQTVDIHKEKVARREIGILTTNKNTSRTHKIIAPANMERPVRYIRKPIDYTVLDDVGHGVKWLKAKHGNNQPARTGTLSRTNPPTQKPPSPPMS
notes: not shown: glutathione S-transferase (GST) from pGEX-2T
binding result (biotinylated GST): no binding

B3: GST fusion polypeptide of Abi1 N1-172 (other)
chain: MAELQMLLEEEIPSGKRALIESYQNLTRVADYCENNYIQATDKRKALEETKAYTTQSLASVAYQINALANNVLQLLDIQASQLRRMESSINHISQTVDIHKEKVARREIGILTTNKNTSRTHKIIAPANMERPVRYIRKPIDYTVLDDVGHGVKWLKAKHGNNQPARTGTLS
notes: as for B2
binding result (biotinylated GST): no binding

Reference: patent US20100184652A1 (NEW YORK BLOOD CENTER, published 2010)
